Article PMC10368727, “Sequestration of histidine kinases by non-cognate response regulators establishes a threshold level of stimulation for bacterial two-component signaling” (Nature Communications, 2023)

T1: phosphorylated, GFP-tagged HK MtrB (cytosolic catalytic domain) (M. tuberculosis, UniProt P9WGK9 234-567)
T1 construct: also called MtrB~P; P~MtrB-GFP
T1 sequence: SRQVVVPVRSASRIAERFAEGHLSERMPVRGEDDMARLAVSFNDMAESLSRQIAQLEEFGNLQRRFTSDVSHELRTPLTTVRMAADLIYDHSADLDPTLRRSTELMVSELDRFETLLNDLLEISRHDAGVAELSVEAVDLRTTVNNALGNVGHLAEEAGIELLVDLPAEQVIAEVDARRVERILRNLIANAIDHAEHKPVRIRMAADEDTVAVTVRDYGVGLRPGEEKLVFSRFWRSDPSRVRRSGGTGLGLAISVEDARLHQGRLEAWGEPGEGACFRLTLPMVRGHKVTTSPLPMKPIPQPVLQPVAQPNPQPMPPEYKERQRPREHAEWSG


Target: T1, phosphorylated, GFP-tagged HK MtrB …
Experiment: MST
Settings: both partners purified

Row | Binder | Kd
1 | MtrA^D56N, phosphor-defective mutant of MtrA (natural protein) MDTMRQRILVVDDDASLAEMLTIVLRGEGFDTAVIGDGTQALTAVRELRPDLVLLNLMLPGMNGIDVCRVLRADSGVPIVMLTAKTDTVDVVLGLESGADDYIMKPFKPKELVARVRARLRRNDDEPAEMLSIADVEIDVPAHKVTRNGEQISLTPLEFDLLVALARKPRQVFTRDVLLEQVWGYRHPADTRLVNVHVQRLRAKVEKDPENPTVVLTVRGVGYKAGPP | 371 ± 130 nM
2 | NarL^D61N, phosphor-defective mutant of NarL (natural protein) MSNPQPEKVRVVVGDDHPLFREGVVRALSLSGSVNVVGEADDGAAALELIKAHLPDVALLNYRMPGMDGAQVAAAVRSYELPTRVLLISAHDEPAIVYQALQQGAAGFLLKDSTRTEIVKAVLDCAKGRDVVAPSLVGGLAGEIRQRAAPVAPVLSAREREVLNRIACGQSIPAIAAELYVAPSTVKTHVQRLYEKLGVSDRAAAVAEAMRQRLLD | 78 ± 13 nM
